The target of the experiment is T1, androgen receptors (ARs) (Homo sapiens, UniProt P10275).
T1 construct: plus VP16 fused to the indicated full length receptors; expressed in transfected cells; host or cells: CV-1
T1 sequence (P10275 1-920): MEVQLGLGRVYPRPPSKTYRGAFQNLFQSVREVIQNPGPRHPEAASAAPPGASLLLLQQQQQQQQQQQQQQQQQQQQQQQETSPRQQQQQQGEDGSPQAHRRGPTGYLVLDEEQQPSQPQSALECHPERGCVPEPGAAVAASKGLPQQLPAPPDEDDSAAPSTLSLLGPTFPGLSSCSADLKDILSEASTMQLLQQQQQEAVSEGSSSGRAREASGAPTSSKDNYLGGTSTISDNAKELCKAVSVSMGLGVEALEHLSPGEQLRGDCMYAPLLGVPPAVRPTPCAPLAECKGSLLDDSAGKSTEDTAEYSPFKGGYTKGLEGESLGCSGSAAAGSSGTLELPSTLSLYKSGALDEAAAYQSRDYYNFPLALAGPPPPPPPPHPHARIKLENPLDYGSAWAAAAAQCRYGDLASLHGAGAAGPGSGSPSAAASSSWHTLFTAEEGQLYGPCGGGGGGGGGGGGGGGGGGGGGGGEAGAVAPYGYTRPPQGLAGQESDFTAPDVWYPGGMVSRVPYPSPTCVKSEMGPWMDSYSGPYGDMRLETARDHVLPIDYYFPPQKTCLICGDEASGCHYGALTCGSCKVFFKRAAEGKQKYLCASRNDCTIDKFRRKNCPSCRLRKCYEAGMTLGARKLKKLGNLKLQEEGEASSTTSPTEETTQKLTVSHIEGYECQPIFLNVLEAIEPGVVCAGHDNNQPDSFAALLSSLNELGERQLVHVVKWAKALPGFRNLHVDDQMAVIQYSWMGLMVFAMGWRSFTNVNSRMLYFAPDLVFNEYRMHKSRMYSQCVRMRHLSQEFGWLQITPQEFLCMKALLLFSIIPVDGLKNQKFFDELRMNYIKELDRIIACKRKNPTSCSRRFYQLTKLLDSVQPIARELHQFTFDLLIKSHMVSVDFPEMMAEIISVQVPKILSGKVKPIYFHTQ
T1 sequence (Q6EMB2 838-1281 F1267S partner limits assumed): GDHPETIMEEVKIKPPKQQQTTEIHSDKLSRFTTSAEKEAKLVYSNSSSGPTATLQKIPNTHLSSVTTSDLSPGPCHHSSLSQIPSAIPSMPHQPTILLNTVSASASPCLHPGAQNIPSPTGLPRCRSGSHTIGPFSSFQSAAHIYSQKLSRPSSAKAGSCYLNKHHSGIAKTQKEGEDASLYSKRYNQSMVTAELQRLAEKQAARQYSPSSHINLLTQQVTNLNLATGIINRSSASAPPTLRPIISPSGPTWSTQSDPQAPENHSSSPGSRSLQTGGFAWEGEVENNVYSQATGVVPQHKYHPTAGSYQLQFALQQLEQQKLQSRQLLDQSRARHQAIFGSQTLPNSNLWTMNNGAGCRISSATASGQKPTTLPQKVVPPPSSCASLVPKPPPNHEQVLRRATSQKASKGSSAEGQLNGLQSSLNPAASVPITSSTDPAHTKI
The experiment in a line: Mammalian two-hybrid assay with VP16 full length receptor: AR. The experiment is classed as cell-based. Particulars: 1 nM R1881. As to the method: FIG. 6C1-3 illustrate the association of STAMP with assorted steroid/nuclear receptors, including glucocorticoid receptors (GRs), progesterone receptors (PRs), androgen receptors (ARs), estrogen receptors (ER α or β), PPARγ2 receptors, thyroid receptor beta (TR), and retinoid (α) receptors (RAR α or RXR α). Triplicate samples of CV-1 cells were transfected (as described for FIG. 6B) with GAL, or GAL fused to TIF2.4 or STAMP834C, plus VP16 fused to the indicated full length receptors and incubated with the appropriate steroid (1 μM Dex, 20 nM R5020, 1 nM R1881, 0.1 μM triiodothyronine, or 1 μM estradiol, roziglitazone, or 9-cis-retinoic acid). The average relative luciferase activities of 2-3 experiments±S.E.M. were then plotted. FIG. 6C1 illustrates the effects of STAMP association upon GR, PR and AR induced expression. FIG. 6C2 illustrates the effects of STAMP association upon ERα, ERβ and PPARγ2 induced expression. FIG. 6C3 illustrates the effects of STAMP association upon TR, RARα and RXRα induced expression.
These assays were conducted as described (He et al., 2002). […]

B1: STAMP834C: STAMP fragment amino acids 834-1277, receptor interaction domain (RID) (protein)
chain: GDHPETIMEEVKIKPPKQQQTTEIHSDKLSRFTTSAEKEAKLVYSNSSSGPTATLQKIPNTHLSSVTTSDLSPGPCHHSSLSQIPSAIPSMPHQPTILLNTVSASASPCLHPGAQNIPSPTGLPRCRSGSHTIGPFSSFQSAAHIYSQKLSRPSSAKAGSCYLNKHHSGIAKTQKEGEDASLYSKRYNQSMVTAELQRLAEKQAARQYSPSSHINLLTQQVTNLNLATGIINRSSASAPPTLRPIISPSGPTWSTQSDPQAPENHSSSPGSRSLQTGGFAWEGEVENNVYSQATGVVPQHKYHPTAGSYQLQFALQQLEQQKLQSRQLLDQSRARHQAIFGSQTLPNSNLWTMNNGAGCRISSATASGQKPTTLPQKVVPPPSSCASLVPKPPPNHEQVLRRATSQKASKGSSAEGQLNGLQSSLNPAASVPITSSTDPAHTKI
As for B1, the “interaction with agonist-bound, full length AR” value was “interacted”.

The record behind these values is US7867500B2, “Cofactor that modulates steroid receptor activities” (The United States of America as represented by the …, priority 2004, dated 2011).
